Laboratory results reported in the DeepSol protein solubility set.

Experiment: soluble on expression in E. coli; label from the status in PepcDB or PDB records

| Sequence | soluble on expression in E. coli |
| --- | --- |
| MGSDKIHHHHHHMTCAFARTVESRFAELTPTAKRIASYMLANLDRLGLETADQIAQQTGTSGISVGRFLRSVGYRNLDDLKRELRGGADRPWMITDRLDEYRRTNGTNGTAGTQAAAIHSDDRALASSLDRELDAIRHVYRLAEEPVFAQVADRIAHADAVFILGIQSTRGISNAFSSYLEYLRPRVFYSDGQSGSYVDSLNSEFERPYCIVTDVRAYSRSARRYCQAAAERGQPFALVTDLYCPWAREWPADLLQVKTDVGQFWDSLAPLTCLFNLLITAVVDRLGPAIDRRVARNRELQHTFDQFES | not soluble |
| MSDFLKLVGENIRFLRKKRGLTQEELAEQINLQQAYIGGVERGERNISMLTLQKIAVGLEVSPDEVLNFSNVNLIDNPQREESLSIITSLLHQKNVNELQFILKFLYNFSEFVESNSNK | not soluble |
| EEDWVLPSEVEVLESIYLDELQVIKGNGRTSPWEIYITLHPATAEDQDSQYVCFTLVLQVPAEYPHEVPQISIRNPRGLSDEQIHTILQVLGHVAKAGLGTAMLYELIEKGKEILTDNNIPHGQ | soluble |
| MGSDKIHHHHHHMQSQELERIARQIRLRDVQAVFEAGAGHVGGEMSAIDIMTALYFRVLRIWPNDPKNPARDRFVLSKGHTACALYVTLAKRGFIPEEEISTFLQPNSRLNGHPNCNKVPGVETNTGPLGHGLPVAVGMATAAKLSGEDYHTYVMTGDGEMQEGSNWEAIMSAAQFKLNNLTLVIDHNRFQQGAAIADTNDVAPLRPKLEAFGWEVTEINGNAMAEVVPALEHRGNRPHCIVAHTNKGHGISFMQDRVDWHHKVPSKEQYEIAVKELSEAL | not soluble |
| MQKSSLISHRFSFCKVCGGKANGNHFGIQSCRACAAFFRRAANSKWSSMKCTTFGCADMLVPCKPCRLKRCQEQGMSTTNFQFDRDALKRLLVPKSVEKFVGRPESVIFCDMTESTSKTFIDIRPLIEKTSNILKNGAEGPIFGRNQLQKLANGFENYTNEISVKMIKKIGKSETADCWEYYITTTAKWLNYFNGFKLLSHELQVGKYVFFIEIFSK | not soluble |
| MQIKTYKIKDICDIKRGRVISKLYIKNNPGEFPVYSSATVNNGEIGRIKDCDLKGEYVTWTTDGAQAGSVFYRNGQFNATNVCGILKVNNDEIYPKFLAYALRLKAPKFVNYACPIPKLMQGTLAEIELDFTSKKIQEKIATILDTFTELSAELSAELSAELSAELRERKKQYVFYSDYLLNPKNWK | soluble |
| MGSDKIHHHHHHMTENKLIIGTAPDSWGVWFADDPKQTPWERFLDEVAESGYKWIELGPYGYLPNNPARLAEELKQRDLKVTAGTVFTAFHRGLDEWETAWEPARKVAELTAAMGGEHIVVIPAMWRDDVTGEAVESGQLTEKAWSDLFAGHNRLGKTLLEDFGLKQQFHSHADSHVGAQEDIESLLAATDSKYLNLCLDTGHAEYCGASSLELIKNYPDRIGYLHLKQINPDILKKVNEENMTWAAANLAGVMTEPPNGLPDLRAVIEAVEALNRPIFGIVEQDMYPVAFDVPMPIAKRTRNYLLSCGSRTAVN | not soluble |
| MEKLAIGVDVGTTQAKAVAFQANGTVVASSYVRYPLIQETEGMAEQDPETLFQAVVNCIRTVTQQVKNQPIGLISFASAMHGLIAMDAQGRPLTQVITWADTRASDYAEALKETPAAQLFYQLTGMPVHPMAPLYKIRWLQENQPAVAQSAAKFIGIKDYIFYRFFGEYWTDYSSASGMGLFNIHTRQWETSILAYLSIEEEQLPKVAPSTFIFPALAPSWQEMLGVEEETVLVLGGADGPLSNLGLGALGMGVATLTVGTSGALRYIVEEPFLHPQGETFCFALDEQHWVIGGASSNGAVALDWASQTIFAEERQQAIQNGTNLYDPIMAKIATVPAGANGLLFHPYLLGERAPLWNAEASASFIGLRKNHHAGHLARAVVEGICFNLKTILEDLKQLGGPVQEIRATGGFADSPVFRQIMADVLGETLSFTDSTEASALGAVLLGWQGLGQLPNLQAAAQQVLIHETVTPRADQLLVYQELYPVFQETQQVLAQSYQKLAEFRK | not soluble |
| DTTERKRREKRLEETSSRLEALFENSPDMIDVLDADGTICEVNQRFCAELGYDESEVLGRSIWEFDLMFDAEDVQTQLSGFSVDERRKFEGLYERRDGSTMSVEVHLLRFNLEGEDRFLAISRD | soluble |
| MGSDKIHHHHHHMGIKYSFTRELRTELIDVDKVFKENLLPWWDDIYNYIKMLNEDFTWNQLPPLVYIVYRYLGLDRSISISMTNIFKTLYLANSIHGMVKDDKEGQKYDQDLQFAILIGDYMFGRMLKLLVEAGADKLVGLFAVMMAEINEGQVMERKLQAAHKDVLQKTRGSIYATAFETAGHLSGMKGILLENCRQLGLNLGMSIELMNCDISREEVLVYIHEAERNYKIINQYQRMVNSNLEAAINEVHSLLCNIENVAVV | not soluble |
| MAERETYADFSVVEKQRNFLTAEEFPEGPYGSPRRDDAPVENKSTPWKEGQRHYSAFNYEFKSFHQNIPRRDPAAHPPHDDPHQSEQFPYNEGE | not soluble |
| AHHHHHHGSPKKERKVEGEEVIRVPLPEGNQLFGVVEQALGAGWMDVRCEDGKVRRCRIPGRLRRRVWIKVGDLVIVEPWPVQSDKRGDIVYRYTQTQVEWLLRKGKISQEFLTGGSLLLE | not soluble |
| MKYRDLRDFLAQLERQGELKRITAPVSTRLEMTEIADRVLRAGGPALLFENARHNDAPADMPVLANLFGTPRRVAWGMGADDVGALRETGELLASLREPEAPKGLRDALAKVSMLKAALWDMSPKTVRSAACQEIVWEGADVDLGRLPIQTCWPGDVAPLLAWGLVITRGPNARRQNLGIYRQQPLGPNKLIMRWLSHRGGALDFRDHAQAHPGKPFPIAVALGADPATILGAVTPVPDTLSEYQFAGLLRGSRTEVVKALGSDLSVPASAEIVLEGHLLPADDPRAVAAAVPEGANPPPATGYEMALEGPYGDHTGYYNEQDWFPVFTVDRITMRRNPIYHSTYTGKPPDEPAVLGVALNEVFVPLLRRQLPEIVDFYLPPEGCSYRLAVVSIRKQYAGHAKRVMFGLWSVLRQFMYTKFIVVVDEDIDPRDWTEVVWAMTTRMDPVRDTVLVENTPIDYLDFASPVSGLGGKMGLDATNKWPGETSREWGTPIHMDEAVKRRVDAMWDTLGLAAALEHHHHHH | not soluble |
| MSGVKIAFIRHHDLWIKVDGKEKQLTKGEYITGPKWSYDGEWLAYVKGEKQNTLELYRLKDGKKVTPFHSEVSNYQWSPTENIIAFIFTGTLHTFKVEKKNADFENVSAGVGDYAWYPNGKKFLVSSEAHLLPTGWTGAQLYEVQKDAHMNPHKMKHLYALPNEHDDFLALVASGFQWSPDQKWISFLAVPTASWSADSNTLCLVRADGSRFEKVDQMLLNTQWFKWAPANNILAYIEGSGRVALENKHLKVKELPALQQNTFTPKGYVDWDFTWKNDNVIIVSRAKEAGIETPPEKRPLPSLYEIDSTSDEQHRITKPPHRQGDYHPLFMNKSNQLIWIRSDRKKADVWLAHKDGKHEMKWIENIDVPLEHHHHHH | not soluble |
| MTKVDFWPTLKDAYEPLYPQQLEILRQQVVSEGGPTATIQSRFNYAWGLIKSTDVNDERLGVKILTDIYKEAESRRRECLYYLTIGCYKLGEYSMAKRYVDTLFEHERNNKQVGALKSMVEDKIQKETL | soluble |
| MSPVVSEASPERWDDETDVLVIGSGAGGLSAALFAAQAGLRVLICEKLAYVGGTTATSGGGIWVPGTKAGLAAGDTLEAARTYLKALLGDFYQEEVIDTYLATGGKVIDFLNENTEVKFDLSSWPDYRSSLPGGATRGRSLFPQPFDGKKLGRNFSLLHPPLHRLMVLGGLMLGPEEVHDFLRPFSSPRALMRVLRKLLRYGMDRIRYARGTDLRSGNALAARLLYSVDKLGCRILTQADLESLAIDHDRVIGATVVVGGVPKRIRASKAVLLATGGFAHNQEMLRRYGPATPHRFSLCNPACTGAGIQAALDAGASVDRELSSVGFWTPASASREKNGADTPVIYGYLDRGRPGVIAVNEQGERFVNEANSYHDIVTAIFANGGADGKPFYFITDREFVRRHGLGLIRPWPWNRSLRPWIRRGYITVASTLDKLGPKIGIDPGALAAAVQRHNQSARTGQDPDFHKGASAYNRMFGHNMTWPNPNLAPIETPPFVALRIHPATIGTAMGLKTSASGQALNAAGQPISGLYACGNNQASPFRGFYPGGGSTLGPAIVGAYLAVQSLSKPLEHHHHHH | soluble |
| MYLRPDEVARVLEKAGFTVDVVTNKTYGYRRGENYVYVNREARMGRTALIIHPRLKDRSSSLADPASDIKTCDHYQNFPLYLGGETHEHYGIPHGFSSRIALERYLNGLFGDEKTD | not soluble |
| MWGQTNMADKKSPLIAVSVGEASGDLLGAHLIRAIRKRCPQARFTGIGGELMKAEGFESLYDQERLAVRGFVEVVRRLPEILRIRRGLVRDLLSLKPDVFVGIDAPDFNLGVAEKLKRSGIPTVHYVSPSVWAWRRERVGKIVHQVNRVLCLFPMEPQLYLDAGGRAEFVGHPMAQLMPLEDDRETARQTLGVDAGIPVFALLPGSRVSEIDYMAPVFFQTALLLLERYPAARFLLPAATEATKRRLAEVLQRPEFAGLPLTVIDRQSETVCRAADAVLVTSGTATLEVALCKRPMVISYKISPLTYAYVKRKIKVPHVGLPNILLGKEAVPELLQSEAKPEKLAAALADWYEHPDKVAALQQDFRALHLLLKKDTADLAARAVLEEAGC | not soluble |
| MKRPDYRTLQALDAVIRERGFERAAQKLCITQSAVSQRIKQLENMFGQPLLVRTVPPRPTEQGQKLLALLRQVELLEEEWLGDEQTGSTPLLLSLAVNADSLATWLLPALAPVLADSPIRLNLQVEDETRTQERLRRGEVVGAVSIQHQALPSCLVDKLGALDYLFVASKPFAERYFPNGVTRSSLLKAPAVAFDHLDDMHQAFLQQNFDLPPGSVPCHIVNSSEAFVQLARQGTTCCMIPHLQIEKELESGELINLTPGLLQRRMLYWHRFAPESRMMRKVTDALLEYGHKVLRQD | not soluble |
| MEFRRKCSRSAMRHKSQKRRAMPNQDVEKVNEIFKFPRISEQALMDGILKISCIASFKNGNQRCFEGSIYVKELCGLRNGTKVFKFIELANIRLYSIDEEDEIPEYDWIISV | not soluble |
| AIAEGEYRLTRSYAVVDITAQVDDSAILEPFACVMARARIGPRTRVGAHSVVGVGVSVGADCCIYHHVTLLNCDIGDRCVIHSGVAIGQDGFGFEVDQQTGKVRKKPQELSVRIGNEVEIGANTCIDRGSWRDTLIEDAVKIDNLVQIGHNVQVGANTFICGQAGVAGSTKIGRYCRFGGRSGAVDHLEIGDHVDVAANSVLTRNAPGHAVYAGFPAMPMREWRHQQVTLRRLSRAGKRQVDVSADDPEFPK | soluble |
| MKRALFVAEKNDVAKGVAAILSNGTANRREGRSKFNKIYTLNTELFGQQTAISVTSVSGHMMNFQFHENMSNWQTASMVELFRAPVRHVVTPEMKLIEQTLREQAQRHDILVVWTDCDREGEAIGAEIVKVCRDSNRRLDIFRARFSEITKAAITRAARNLIRLDEKTVAAVDCRSELDLRIGSAFTRLQTLHLRNRFRDLLGQNDTSQVISYGSCQFPTLGFVTDRYKMIENFVSEPFWKLIVEHTRESHKVEFLWDRNRLFDRDTVDILHDECKETKEAHVEKVAKKPKSKWRPQALDTVELEKLGISKLRMSAKQTMQVAEKLYSKGFISYPRTETNKFPAGLNLTPLVQQQTQSNIWGDFANEVLQNGVNPRNGRKSDEAHPPIHPLKFTEKHQLQGDDWKVYELVVRHFLACVSQDAQGEETMVNLTVGTEKFHASGLRIRDMGYLKVYVYEKWGNRLLPTYTEGERFTDFELKIGDGKTQAPDFLTEADLISLMDKYGIGTDATHAEHIEKIKTREYIGVRPDGKLIPSFLGLALVDGYDDMGFAMSKPDLRANLEIGLKEICDGRRQKQEVLDEQIGKYRAIFVESERKIGVLSQSLQRYLDKNNQAGGGPGGPGGGGGPPRGPGGGGGGGPTGPPAPPKPPAKPRGRPPRKSISPAVKNGHDDPENDTIVTLSEVFGSMSNPKPARKPRAPRKSAAPKEQEEEEEVFCQCPEPMRAVTKVVQKEGPNKGKKFYTCSLPYTSSEKCNFFKWA | not soluble |
